According to US20050147687A1, “Methods for fabrication, uses and compositions of small spherical particles of AAT prepared by controlled phase separation” (priority 2003, published 2005):

Target: porcine pancreatic elastase (PPE) (Sus scrofa, UniProt P00772)
Test: Inhibition of porcine pancreatic elastase by rAAT (specific activity)
Assay type: biochemical
Description: To determine the specific activity, the rAAT small spherical particles were dissolved in 0.2M Tris-HCl pH 8.0 at room temperature. The resulting solution was analyzed by an assay which measures the capacity of rAAT to inhibit the ability of porcine pancreatic elastase (PPE) to hydrolyze synthetic peptides that contain a p-nitroanilide group at their C-terminus. The same solution of rAAT small spherical particles was then assayed for protein concentration using the Bicinchoninic Acid (BCA) assay. A control rAAT starting material solution was also analyzed in both assays. Because the activity assay was developed to determine the activity based on a concentration of 1 mg/ml protein per sample, the activity value was corrected based on the actual protein concentration as determined by BCA, giving the specific activity value: [formula]

Sequence of porcine pancreatic elastase (PPE) (P00772 27-266): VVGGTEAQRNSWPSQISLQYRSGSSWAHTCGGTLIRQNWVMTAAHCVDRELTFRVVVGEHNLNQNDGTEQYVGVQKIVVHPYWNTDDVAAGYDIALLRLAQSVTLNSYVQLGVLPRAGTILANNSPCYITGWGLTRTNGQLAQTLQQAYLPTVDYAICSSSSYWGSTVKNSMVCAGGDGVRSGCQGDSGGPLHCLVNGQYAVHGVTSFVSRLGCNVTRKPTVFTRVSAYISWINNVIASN

control rAAT starting material: control solution of recombinant alpha-1-antitrypsin starting material
specific activity, inhibition of porcine pancreatic elastase (scale 100-300 mg (n = 12, column)): 64.34 ± 4.95 IU/mg | specific activity, inhibition of porcine pancreatic elastase (scale 200-300 mg (n = 8, vessel)): 65.87 ± 0.98 IU/mg
